# From patent US9598677B2, “Use of human biliverdin reductase and fragments thereof for the treatment of protein kinase C-delta and ERK related conditions” (University of Rochester, priority 2009, dated 2017)
# “Also recorded” adds a separate entry of the source. Ends that are not written are not given here.
# B1: hBVR: purified E. coli expressed human biliverdin reductase (protein)
# chain: MNAEPERKFGVVVVGVGRAGSVRMRDLRNPHPSSAFLNLIGFVSRRELGSIDGVQQISLEDALSSQEVEVAYICSESSSHEDYIRQFLNAGKHVLVEYPMTLSLAAAQELWELAEQKGKVLHEEHVELLMEEFAFLKKEVVGKDLLKGSLLFTSDPLEEDRFGFPAFSGISRLTWLVSLFGELSLVSATLEERKEDQYMKMTVCLETEKKSPLSWIEEKGPGLKRNRYLSFHFKSGSLENVPNVGVNKNIFLKDQNIFVQKLLGQFSEKELAAEKKRILHCLGLAEEIQKYCCSRK
# modifications: GST tag; Homo sapien
# notes: purified E. coli expressed human biliverdin reductase
# Experiments:
# recombinant human PKC-δ [1] = settings: Nishikawa et al. 1997; read-out: reported Km for the commercial substrate; cited from earlier work
# Elk1 = test: Elk1-luciferase reporter assay; format: cell-based, human; settings: myristoylated peptide 2 h prior to PMA, control PMA-treated cells, FIG. 10C
# Experimental: Elk1-luciferase reporter assay: Cells were co-transfected with the reporters pFA2-Elk1, pFR-Luc (Stratagene, La Jolla, Calif.) and pCMV-β-galactosidase, and other plasmids, as necessary. Cells were lysed; promoter activity was determined by luciferase assay and normalized on β-galactosidase.
# recombinant human PKC-δ [2] = test: PKC-δ kinase assay in vitro (p81 filter / autoradiography); format: biochemical
# Experimental: Measurement of PKC-δ activity: In vitro kinase activity assays were performed with active recombinant human PKC-δ kinase (as a GST fusion protein). PKC-δ assay in vitro was performed using 5 ng purified enzyme in a 50 μl assay containing 50 mM HEPES pH 7.4, 10 mM MgCl2, 0.2 mM DTT, sonicated lipid activators (0.5 μg phosphatidylserine and 0.05 μg diacylglycerol) or lipid activators plus PMA (as indicated in appropriate experiments) and PKC-δ substrates. The reaction was started by the addition of 50 μM ATP labeled with 5 μCi [γ-^32P]-ATP. Incubation was performed for 15 min at 30° C., unless otherwise stated. The reaction was terminated on ice, either by the addition of Laemmli buffer followed by SDS-PAGE, transferred to PVDF membrane, and autoradiography, or by the addition of 1 volume 10% phosphoric acid for p81 transfer as described below. For autophosphorylation of PKC-δ 20 μM ATP was used to start the 40-min reaction.
# When hBVR or its mutants were tested for their effect on PKC-δ activity, they were pre-incubated for 5 min at room temperature with the PKC prior to substrate addition. The hBVR-derived peptides were used at concentrations indicated in appropriate figures.
# When hBVR or its mutants were assayed as the sole substrates for PKC, the incubation conditions were as described above and the incubation was for 40 min at 30° C. unless specified otherwise. The reaction was terminated by the addition of Laemmli buffer, and the reaction products were detected by SDS-PAGE, transfer to PVDF membrane, and autoradiography.
# Measurement of PKC-δ activity: PKC-δ assay in vitro was performed using 0.1 ng/μl purified recombinant human PKC-δ kinase with reaction conditions specified by the manufacturer. Effector molecules such as hBVR or peptides were added 5 min prior to substrate. The reaction was started by the addition of [γ-^32P]-ATP (Lerner-Marmarosh et al., “Human Biliverdin Reductase: A Member of the Insulin Receptor Substrate Family with Serine/Threonine/Tyrosine Kinase Activity,” Proc. Natl. Acad. Sci. U.S.A. 102(20):7109-7114 (2005), which is hereby incorporated by reference in its entirety). Reaction products were detected either by gel electrophoresis and autoradiography or by the p81 filter assay. PKC-δ activity on agarose beads was also measured. Cell lysates were immunoprecipitated with anti-PKC-δ antibody followed by protein A/G agarose. The immunoprecipitates were used in kinase reactions containing 50 μM PKC-δ specific peptide substrate as above; incorporation of ^32P was measured by p81 method.
# PKC-δ = PKC-δ (Homo sapiens, UniProt Q05655); test: GST-hBVR pull-down of PKC-δ from cell lysate; format: binding; set-up: The human PKC-δ open reading frame was also cloned in the same vectors; expressed in transfected cells; host or cells: HEK 293A (PKC-δ); E. coli, pGEX-4T2 (GST-hBVR); settings: 30 min and 120 min incubation, FIG. 2A
# PKC-δ, sequence (Q05655 whole entry): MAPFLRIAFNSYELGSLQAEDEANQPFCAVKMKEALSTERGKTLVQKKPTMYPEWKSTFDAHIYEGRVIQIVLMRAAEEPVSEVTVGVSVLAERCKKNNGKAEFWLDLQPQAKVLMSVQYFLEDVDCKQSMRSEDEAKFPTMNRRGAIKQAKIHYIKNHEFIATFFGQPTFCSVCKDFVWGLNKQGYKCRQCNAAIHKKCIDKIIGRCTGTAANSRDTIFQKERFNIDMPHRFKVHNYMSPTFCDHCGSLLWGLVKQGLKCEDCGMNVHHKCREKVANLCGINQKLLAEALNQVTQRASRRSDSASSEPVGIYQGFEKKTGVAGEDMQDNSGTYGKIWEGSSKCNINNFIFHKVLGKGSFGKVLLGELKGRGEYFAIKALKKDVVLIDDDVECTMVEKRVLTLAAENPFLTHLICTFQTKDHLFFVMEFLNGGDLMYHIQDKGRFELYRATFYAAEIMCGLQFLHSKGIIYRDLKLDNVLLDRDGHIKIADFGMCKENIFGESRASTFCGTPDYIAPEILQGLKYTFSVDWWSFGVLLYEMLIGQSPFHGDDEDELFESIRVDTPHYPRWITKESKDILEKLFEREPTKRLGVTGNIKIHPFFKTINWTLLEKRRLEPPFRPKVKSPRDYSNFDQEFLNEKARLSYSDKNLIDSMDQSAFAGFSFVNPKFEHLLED
# Experimental: Cell Culture, infection, transfection, GST pull-down and co-immunoprecipitation: HEK 293A cells were grown in Dulbecco's Modified Eagle Medium (Invitrogen) containing 10% fetal bovine serum and 1% penicillin-G/streptomycin for 24 h or until the cells reached 70% confluency. Depending on the experiment, cells were subsequently transfected with up to 5 μg of pcDNA3-hBVR or pcDNA3-PKC-δ plasmid using Transfectin Lipid Reagent (Bio-Rad, Hercules, Calif.) in 10 cm plates. Western blotting determined overexpression of hBVR or PKC-δ. To prepare si-hBVR or sc-hBVR (containing a randomized variant of the sihBVR sequence), pSuper-Retro-si-hBVR (Miralem et al., “Small Interference RNA-Mediated Gene Silencing of Human Biliverdin Reductase, But Not That of Heme Oxygenase-1, Attenuates Arsenite-Mediated Induction of the Oxygenase and Increases Apoptosis in 293A Kidney Cells,” J. Biol. Chem. 280:17084-17092 (2005), which is hereby incorporated by reference in its entirety) or sc-hBVR, respectively, were introduced into 293A cells for packaging, and the si-hBVR or sc-hBVR retrovirus were titrated using NIH3T3 cells. […] Proteins were separated by SDS-page and detected by immunoblotting using anti-PKC-δ antibodies.
molecule,measurement,setting,value
ARRKRKGSFFGG (PKC-delta substrate) [commercial peptide identified by Nishikawa as the optimal substrate for PKC-δ],Km,recombinant human PKC-δ [1],0.98 µM
"SAFAGFSFVNPKFEHLLED (also: myristoylation, place not given here) [myristoylated PKC-δ bulky Ring motif C-terminal peptide]",inhibition of Elk1 dependent luciferase expression,Elk1,90%
B1,PKC-δ kinase activity toward MBP in presence of hBVR,"recombinant human PKC-δ [2]; 2 μg GST-hBVR, 12.5 μM MBP, FIG. 1B",increased kinase activity
same,PKC-δ autophosphorylation in presence of hBVR,"recombinant human PKC-δ [2]; FIGS. 1A, 1C, 7C",enhanced; also recorded: increased
same,binding of PKC-δ from cell lysates,PKC-δ,selectively bound PKC-δ
